Patent US6544767

Molecular target: mature recombinant human cathepsin O2 (human) (UniProt P43235)
Test: cell-based or functional assay

Sequence of mature recombinant human cathepsin O2 (human) (P43235 115-329): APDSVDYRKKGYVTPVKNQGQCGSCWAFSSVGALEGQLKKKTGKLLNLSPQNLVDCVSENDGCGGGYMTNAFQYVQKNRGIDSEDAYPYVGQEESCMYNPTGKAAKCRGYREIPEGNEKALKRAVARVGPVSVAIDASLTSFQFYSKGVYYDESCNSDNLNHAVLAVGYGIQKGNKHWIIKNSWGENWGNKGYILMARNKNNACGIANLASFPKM

chicken cystatin (from UniProt P01038 24-139)
% inhibition (of cathepsin O2 activity, fluorimetric Z-FR-MCA assay, 0.1 µM inhibitor): 100%
